Measurements published in US12006519B2, “Polymerase mutants and use with 3′-OH unblocked reversible terminators” (Agilent Technologies, Inc., priority 2021, dated 2024).
Residue numbers refer to the chain shown, from its start. In names and notes the source's numbering stands.

Columns and labels:
Format in all cases: biochemical
LTC = test: Plate-based assay with immobilized primer-templates, incorporation of LTC; details: FIG. 6
Protocol: (§1) In this example, additional mutant polymerases were derived from Pfu polymerase. To generate the mutants, eighty-seven codons in the Pfu pol B gene were saturated using the QuikChange Lightning Mutagenesis kit and oligonucleotides containing “NDT” codons to create R, N, D, C, G, H, I, L, F, S, Y, and V substitutions with equal frequency. In some cases, mutants missing from NDT libraries were prepared in a separate QuikChange reaction with an equimolar mixture of mutagenic oligos encoding the remaining mutations (A, T, K, Q, E, P, […], W). Thirty-two clones were randomly selected from each QuikChange library (with the exception of T267, Y403, Y410, I475, G499 and K675 libraries which generated fewer transformants). Bacterial lysates were prepared and screened for incorporation of LTA and LTC using a plate-based assay with immobilized primer-templates. A limited number of mutants were also screened for utilization of LTG and LTU (similar trends; data not shown). After washing and UV cleavage (to minimize dye quenching effects), plates were read and fluorescent signals compared to Pfu controls. The following table identifies four mutant Pfu polymerases that served as controls, which were given the arbitrary names Pfu5, Pfu1, and Pfu2, along with Pfu10 (which is discussed above).

Lightning Terminators [1] = test: Plate-based assay, incorporation of Lightning Terminators by control extracts; details: for Utilization of Lightning Terminators (in words): control extracts, FIG. 6, FIGS. 7A-7B
Protocol: as §1
Selected lysates, based on screening results, were submitted for sequencing, and an amino acid identification was made based on the selections. […] As shown in Example 3, K477W benefits sequencing by increasing the fraction of full-length reads.

Lightning Terminators [2] = test: Sequencing-by-synthesis with Lightning Terminators (87 cycles); design: ARL (87 cycles) / Lead + Lag / Leading / Lagging: unit not given here
Protocol: (§2) This section generally describes how the present mutant polymerases were used for sequencing-by-synthesis, and how their performance in sequencing was measured. Sequencing was performed on a breadboard instrument, essentially as described in Hertzog D, et al., “A high-performance, low-cost approach to next-generation sequencing”, BioOptics World. 2011 Issue November/December 2011.
In this example, mutations were introduced into the DNA polymerase of SEQ ID NO: 12 (Therminator) in an attempt to improve its capability in sequencing with 3′-OH unblocked terminators. Such mutations to Thermococcus sp. 9° N DNA polymerase are disclosed in U.S. Pat. Nos. 9,273,352; 9,677,059; 9,765,309; U.S. Pat. App. Publication No. 20160032377. The following table summarizes sequencing metrics with Lightning Terminators.
As used in this example and those that follow, “Lead+Lag” refers to dephasing errors in Sequencing by Synthesis technology caused by either reading the next base signal (Lead) or reading the previous base signal (Lag) relative to current base signals. Such errors may arise because of imperfect incoporation of reversible terminators by the polymerase.
In this example, mutant polymerases were created by introducing certain mutations (D141A/E143A/A485L) which are present in Therminator. The three mutations were introduced at the equivalent positions in JDF3 (Thermococcus sp. JDF3) and Pfu (Pyrococcus furisosus) DNA polymerases. The new mutant polymerases were then evaluated for their performance in sequencing with Lightning Terminators, as described above.

[3] = test system: Lightning Terminator-A (LTA); test: Plate-based single-base extension assay, incorporation of LTA
From the text: This example used saturation mutagenesis at positions 486 and 494 in Pfu D141A/E143A to create additional mutant polymerases. Bacterial extracts were screened in a plate-based single-base extension assay employing Lightning Terminator-A (LTA). Positive clones producing the highest fluorescent signals were sequenced to identify the amino acid replacement. […] Selected lysates, based on screening results, were submitted for sequencing, and an amino acid identification was made based on the selections.
FIG. 3 illustrates the saturation of position 486 in a Pfu polymerase. The QuikChange kit was used with degenerate NDT codon primers to create a library of Pfu A486 mutants. A NDT codon comprises an A, C, G, or T at the first position, an A, G, or T at the second position, and a T at the third position, thereby introducing variability into the primer. The 12 possible NDT codons represent 12 amino acids (Phe, Leu, Ile, Val, Tyr, His, Asn, Asp, Cys, Arg, Ser, and Gly). Heat-clarified extracts were prepared from 32 randomly selected colonies. Extracts were screened for incorporation of LTA in a microtiter plate assay employing an immobilized dsDNA substrate. […]
In this example, additional mutant polymerases were derived from Pfu polymerase. […] After washing and UV cleavage (to minimize dye quenching effects), plates were read and fluorescent signals compared to Pfu controls. […]

E. coli DNA library = test: Sequencing with Lightning Terminators, E. coli DNA library (120 cycles)
Protocol: as §2
(§3) In this example, a variety of mutations were introduced into Pfu10 by multi-site mutagenesis or into Pfu A486L/Y546H by domain substitutions to explore an acceptable degree of reduced identity and identify other mutant Pfu polymerases containing L486, F494, H546, and W477. […] Pfu10 and Pfu10-N12 were evaluated for performance in sequencing with Lightning Terminators, as described above.

dATP = test: Template-independent DNA synthesis assay with dATP (terminal transferase activity)
Protocol: The template-independent DNA synthesis reactions employed 7.5 U TdT (Promega) or 180 nM (3×over primer) Pfu26 (D141A/E143A/A486L/Y546H/K477W/L409Y) or Pfu48 (D141A/E143A/A486R/Y546H/K477W/L409Y). Varying concentrations of dATP were added to 2 μM (TdT) or 60 nM (Pfu) T7 FOR primer (6′Fam […]) (SEQ ID NO:6) in duplicate reactions containing 1×TdT buffer with CoCl2(Promega) or 1×ThermoPol buffer (NEB). Reactions were incubated for 30 min. at 37° C. (TdT) or 60° C. (Pfu), and then inactivated with heat (TdT; 10 min. at 70° C.) or EDTA (1 ul 500 uM EDTA). Reaction products were exposed to UV using a Stratalinker (15-watt bulbs, […], 10 min). Reactions were diluted in water (TdT, 1:333; Pfu, 1:10) and 1 μl (TdT) or 0.5 μl (Pfu) aliquots were brought up to 10 μl with HiDI/LIZ 120 Size Standard. Products were heated at 95° C. for 5 min., cooled on ice for 2 min., and then analyzed on an ABI 3500 capillary electrophoresis system ([…] capillary, filter set #5, assay=GE5 LIZ120).
Terminal transferase activity was measured by the number of template-independent dATP additions. Results are shown for TdT in FIG. 9A, for Pfu26 in FIG. 9B and for Pfu48 in FIG. 9C.

Human DNA library = test: Sequencing with Lightning Terminators, Human DNA library (120 cycles); details: Human DNA library
Protocol: as §2, §3

[4] = alternative polymerases (D141A/E143A), same protein concentrations (0.02 ug/uL in cycle 1 and 0.002 ug/uL in cycles 2-n)

B1: Pfu2: Pfu DNA polymerase with D141A/E143A/A486L/Y546H (protein, UniProt P61875 1-775, looked up, variant D141A E143A A486L Y546H)
DNA polymerase: MILDVDYITEEGKPVIRLFKKENGKFKIEHDRTFRPYIYALLRDDSKIEEVKKITGERHGKIVRIVDVEKVEKKFLGKPITVWKLYLEHPQDVPTIREKVREHPAVVDIFEYDIPFAKRYLIDKGLIPMEGEEELKILAFAIATLYHEGEEFGKGPIIMISYADENEAKVITWKNIDLPYVEVVSSEREMIKRFLRIIREKDPDIIVTYNGDSFDFPYLAKRAEKLGIKLTIGRDGSEPKMQRIGDMTAVEVKGRIHFDLYHVITRTINLPTYTLEAVYEAIFGKPKEKVYADEIAKAWESGENLERVAKYSMEDAKATYELGKEFLPMEIQLSRLVGQPLWDVSRSSTGNLVEWFLLRKAYERNEVAPNKPSEEEYQRRLRESYTGGFVKEPEKGLWENIVYLDFRALYPSIIITHNVSPDTLNLEGCKNYDIAPQVGHKFCKDIPGFIPSLLGHLLEERQKIKTKMKETQDPIEKILLDYRQKLIKLLANSFYGYYGYAKARWYCKECAESVTAWGRKYIELVWKELEEKFGFKVLYIDTDGLHATIPGGESEEIKKKALEFVKYINSKLPGLLELEYEGFYKRGFFVTKKRYAVIDEEGKVITRGLEIVRRDWSEIAKETQARVLETILKHGDVEEAVRIVKEVIQKLANYEIPPEKLAIYEQITRPLHEYKAIGPHVAVAKKLAAKGVKIKPGMVIGYIVLRGDGPISNRAILAEEYDPKKHKYDAEYYIENQVLPAVLRILEGFGYRKEDLRYQKTRQVGLTSWLNIKKS
In the case of B1, the “Incorporation of LTC (in words)” value (LTC) is reported as “maximize incorporation of LTC”, the “Utilization of Lightning Terminators (in words)” value (Lightning Terminators [1]) is reported as “could utilize Lightning Terminators” and the “Sequencing performance with Lightning Terminators (in words)” value (Lightning Terminators [2]) is reported as “nearly identical to Therminator”. For the same molecule, the “% reads >85” value (Lightning Terminators [2]; [4]) was 49.7%, the “ARL (87 cycles)” value (Lightning Terminators [2]; [4]) was 75.3 and the “Lead + Lag” value (Lightning Terminators [2]; [4]) was 1.3.

B2: A486R: Pfu D141A/E143A with A486R (protein)
chain: B1 DNA polymerase with L409Y, K477W, L486R
modifications: Mutant of Pyrococcus furiosus Polymerase
B2 was tested, and the “Incorporation of Lightning Terminators (in words)” value ([3]; Example 5, saturation mutagenesis in Pfu D141A/E143A, bacterial extracts, LTA) was “improve incorporation of Lightning Terminators” and the “Incorporation signals compared to the Pfu A486L control (Pfu10)” value ([3]; Example 6, LTA and/or LTC) was “superior incorporation signals”.

B3: Pfu10: Pfu D141A/E143A/K477W/A486L/Y546H, SEQ ID NO:2 (protein)
chain: B1 DNA polymerase with K477W
modifications: Mutant of Pyrococcus furiosus Polymerase
For B3, the “Incorporation of LTC (in words)” value (LTC) was “maximize incorporation of LTC”, the “Effect on LTA and LTU incorporation (in words)” value (Lightning Terminators [1]; K477W, or final fluorescence due to tryptophan quenching) was “negative impact on LTA and LTU incorporation” and the “Utilization of Lightning Terminators (in words)” value (Lightning Terminators [1]) was “could utilize Lightning Terminators”. For the same molecule, the “% reads >85” value (E. coli DNA library) was 79.9%, the “ARL (120 cycles)” value (E. coli DNA library) was 92.3 and the FracQ30 (E. coli DNA library) was 0.63. For the same molecule, the “Lead + Lag” value (E. coli DNA library) was 0.8, the “Non-templated dA-addition (terminal transferase activity)” value (dATP) was “fail to perform non-templated dA-addition” and the “Sequencing performance with Lightning Terminators (in words)” value (Lightning Terminators [2]) was “improved sequencing enzyme”. For the same molecule, the “% reads >85 bp” value (Lightning Terminators [2]; Example 3) was 69.5%, the FracQ30 (Lightning Terminators [2]; Example 3) was 0.62 and the Lagging (Lightning Terminators [2]; Example 3) was 0.66. For the same molecule, the Leading (Lightning Terminators [2]; Example 3) was 0.24, the “ARL (87 cycles)” value (Lightning Terminators [2]; Example 3, Therminator 110 runs, Pfu10 12 runs) was 80.4 and the “% reads >85” value (Human DNA library) was 92.0%. For the same molecule, the “ARL (120 cycles)” value (Human DNA library) was 109.7, the FracQ30 (Human DNA library) was 0.65 and the “Lead + Lag” value (Human DNA library) was 1.1.
